Our source for the Kd values is paper PMC6996796.

In the experiment the target is branched K11/K48 triubiquitin (Homo sapiens) (UniProt P0CG48). Put plainly: NMR. Particulars: modification not given.

Several values for one entry are separate records, joined by “and”; a condition that tells them apart may be missing. Equal values may be shown once.

Sequence of hHR23A UBA2 UBA2, P54725 (P54725 315-361): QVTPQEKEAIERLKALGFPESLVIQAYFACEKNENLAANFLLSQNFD

In the case of hHR23A UBA2 UBA2, P54725, the Kd (as a rule, the constant that tells how readily two partners part at equilibrium) was 26 µM and 248 µM.
